Experimental data from paper PMC7948495, “The flexible N-terminus of BchL autoinhibits activity through interaction with its [4Fe-4S] cluster and released upon ATP binding” (The Journal of Biological Chemistry, 2020).

Molecular target: BchNB (NB-protein of DPOR) from Rhodobacter sphaeroides (Rhodobacter sphaeroides)

## linked-BchL (two BchL subunits expressed as a single polypeptide, joined by a flexible linker) (enzyme)
  kobs of Pchlide reduction measured as Chlide formation (with BchNB, Pchlide and ATP): 0.0148 µM/min
